Self-cleavage data for 57 variants are collected here from the RNAGym collection of RNA variant scans (doi:10.7554/elife.80360).

First the molecules themselves.
B1: Hammerhead Ribozyme (parent)
chain: ACCGGAUGUGCUUUCCGGUCUGAUGAGUCCGUGAGGACGAAACAG

This data set covers variants of B1. Briefly: self-cleavage, relative activity (ratio to wild type); higher = more cleavage; co-transcriptional.
With ACCGGAUGUGCUUUCCUGUCUGCUGAGUCCGUGAGGACGAAACAG, the self-cleavage stood at 0.32.

With ACCGGAUGUGCUUUCCUGUCUGGUGAGUCCGUGAGGACGAAACAG, the self-cleavage came out at 0.382.

Take ACCGGAUGUGCUUUCCUGUCUGAUGAGUCCGUGAGGACGAAGCAG: the self-cleavage stood at 0.333.

With ACCGGAUGUGCUUUCCUGUCUGAUGAGUCCGUGAGGACGAAUCAG, the self-cleavage stood at 0.369.

Take ACCGGAUGUGCUUUCCUGUCUGAUGAGUCCGUGAGGACGAACCAG: the self-cleavage turned out to be 0.394.

For the variant ACCGGAUGUGCUUUCCUGUCUGAUGAGUCCUUGAGGACGAAACAG, the self-cleavage is 0.834.

For ACCGGAUGUGCUUUCCUGUCUGAUGAGUCCAUGAGGACGAAACAG, the self-cleavage was determined as 0.918.

Consider ACCGGAUGUGCUUUCCUGUCUGAUGAGUCCCUGAGGACGAAACAG, for which the self-cleavage is 0.86.

Regarding ACCGGAUGUGCUUUCCUGUCUGAUAAGUCCGUGAGGACGAAACAG, the self-cleavage turned out to be 0.347.

As to ACCGGAUGUGCUUUCCUGUCUGAUUAGUCCGUGAGGACGAAACAG, the self-cleavage is 0.37.

ACCGGAUGUGCUUUCCUGUCUGAUCAGUCCGUGAGGACGAAACAG: the self-cleavage was determined as 0.319.

With ACCGGAUGUGCUUUCCUGUCUGAUGAGUCCGUGAGGACGAAACAG, the self-cleavage stood at 0.855.

As for ACCGGAUGUGCUUUCCUGUUUGAUGAGUCCGUGAGGACGAAACAG, the self-cleavage turned out to be 0.501.

ACCGGAUGUGCUUUCCUGUAUGAUGAGUCCGUGAGGACGAAACAG: the self-cleavage was determined as 0.422.

ACCGGAUGUGCUUUCCUGUGUGAUGAGUCCGUGAGGACGAAACAG: the self-cleavage came out at 0.359.

Consider ACCGGAUGUGCUUUCCUGUCUGAUGAGUCCGUGACGACGAAACAG, for which the self-cleavage was 0.405.

As for ACCGGAUGUGCUUUCCUGUCUGAUGAGUCCGUGAUGACGAAACAG, the self-cleavage stood at 0.454.

As for ACCGGAUGUGCUUUCCUGUCUGAUGAGUCCGUGAAGACGAAACAG, the self-cleavage is 0.642.

On to ACCGGAUGUGCUUUCCCGUCUGAUGACUCCGUGAGGACGAAACAG, for which the self-cleavage amounted to 0.354.

On to ACCGGAUGUGCUUUCCCGUCUGAUGAUUCCGUGAGGACGAAACAG, for which the self-cleavage worked out at 0.349.

Regarding ACCGGAUGUGCUUUCCCGUCUGAUGAAUCCGUGAGGACGAAACAG, the self-cleavage was determined as 0.446.

With ACCGGAUGUGCUUUCCCGUCUGAUGAGUCCGUCAGGACGAAACAG, the self-cleavage is 0.458.

Turning to ACCGGAUGUGCUUUCCCGUCUGAUGAGUCCGUAAGGACGAAACAG, the self-cleavage was 0.564.

ACCGGAUGUGCUUUCCCGUCUGAUGAGUCCGUUAGGACGAAACAG: the self-cleavage was determined as 0.623.

With ACCGGAUGUGCUUUCCCGUCUGAUGAGUCCAUGAGGACGAAACAG, the self-cleavage turned out to be 0.699.

Consider ACCGGAUGUGCUUUCCCGUCUGAUGAGUCCCUGAGGACGAAACAG, for which the self-cleavage was determined as 0.563.

On to ACCGGAUGUGCUUUCCCGUCUGAUGAGUCCUUGAGGACGAAACAG, for which the self-cleavage was found to be 0.713.

Consider ACCGGAUGUGCUUUCCCGUCUGAUGAGUCCGUGAGCACGAAACAG, for which the self-cleavage was 0.246.

As to ACCGGAUGUGCUUUCCCGUCUGAUGAGUCCGUGAGAACGAAACAG, the self-cleavage is 0.361.

On to ACCGGAUGUGCUUUCCCGUCUGAUGAGUCCGUGAGUACGAAACAG, for which the self-cleavage amounted to 0.392.

Consider ACCGGAUGUGCUUUCCUGUCUGAUGAGUCCGUGAGGACGAGACAG, for which the self-cleavage was 0.375.

Turning to ACCGGAUGUGCUUUCCUGUCUGAUGAGUCCGUGAGGACGACACAG, the self-cleavage was determined as 0.365.

In the case of ACCGGAUGUGCUUUCCUGUCUGAUGAGUCCGUGAGGACGAUACAG, the self-cleavage worked out at 0.327.

On to ACCGGAUGUGCUUUCCUGUCUGAUGAGUCCGUGAGGACGAAAUAG, for which the self-cleavage came to 0.379.

On to ACCGGAUGUGCUUUCCUGUCUGAUGAGUCCGUGAGGACGAAAGAG, for which the self-cleavage was 0.291.

Turning to ACCGGAUGUGCUUUCCUGUCUGAUGAGUCCGUGAGGACGAAAAAG, the self-cleavage is 0.356.

Take ACCGGAUGUGCUUUCCUGUCUGAUGUGUCCGUGAGGACGAAACAG: the self-cleavage was found to be 0.527.

As to ACCGGAUGUGCUUUCCUGUCUGAUGCGUCCGUGAGGACGAAACAG, the self-cleavage turned out to be 0.448.

As for ACCGGAUGUGCUUUCCUGUCUGAUGGGUCCGUGAGGACGAAACAG, the self-cleavage stood at 0.33.

As for ACCGGAUGUGCUUUCCCGUCUGACGAGUCCGUGAGGACGAAACAG, the self-cleavage came out at 0.457.

Take ACCGGAUGUGCUUUCCCGUCUGAAGAGUCCGUGAGGACGAAACAG: the self-cleavage turned out to be 0.493.

As to ACCGGAUGUGCUUUCCCGUCUGAGGAGUCCGUGAGGACGAAACAG, the self-cleavage was determined as 0.462.

With ACCGGAUGUGCUUUCCUGUCUGAUGAGUCCGUGAGGGCGAAACAG, the self-cleavage was 0.568.

On to ACCGGAUGUGCUUUCCUGUCUGAUGAGUCCGUGAGGCCGAAACAG, for which the self-cleavage stood at 0.688.

Regarding ACCGGAUGUGCUUUCCUGUCUGAUGAGUCCGUGAGGUCGAAACAG, the self-cleavage turned out to be 0.586.

On to ACCGGAUGUGCUUUCCUGACUGAUGAGUCCGUGAGGACGAAACAG, for which the self-cleavage came out at 0.361.

For ACCGGAUGUGCUUUCCUGGCUGAUGAGUCCGUGAGGACGAAACAG, the self-cleavage worked out at 0.257.

In the case of ACCGGAUGUGCUUUCCUGCCUGAUGAGUCCGUGAGGACGAAACAG, the self-cleavage stood at 0.397.

Turning to ACCGGAUGUGCUUUCCCGUCUGAUGAGGCCGUGAGGACGAAACAG, the self-cleavage came out at 0.395.

In the case of ACCGGAUGUGCUUUCCCGUCUGAUGAGACCGUGAGGACGAAACAG, the self-cleavage worked out at 0.391.

For the variant ACCGGAUGUGCUUUCCCGUCUGAUGAGCCCGUGAGGACGAAACAG, the self-cleavage is 0.276.

Turning to ACCGGAUGUGCUUUCCCGUCUGAUAAGUCCGUGAGGACGAAACAG, the self-cleavage came out at 0.362.

With ACCGGAUGUGCUUUCCCGUCUGAUCAGUCCGUGAGGACGAAACAG, the self-cleavage was found to be 0.403.

For the variant ACCGGAUGUGCUUUCCCGUCUGAUUAGUCCGUGAGGACGAAACAG, the self-cleavage came out at 0.296.

With ACCGGAUGUGCUUUCCUGUCUGAUGAGUCCGUGUGGACGAAACAG, the self-cleavage worked out at 0.531.

ACCGGAUGUGCUUUCCUGUCUGAUGAGUCCGUGGGGACGAAACAG: the self-cleavage worked out at 0.604.

For the variant ACCGGAUGUGCUUUCCUGUCUGAUGAGUCCGUGCGGACGAAACAG, the self-cleavage came out at 0.46.
